{"source": "patent US20040146896A1", "about": "“Methods and compositions for diagnosing and treating companion animal cancer” (priority 2002, published 2004)", "format_in_all_cases": "cell-based", "key": {"U937 human tumor cells [1]": {"system": "U937 human tumor cells", "assay": "Cell Death Detection ELISA apoptosis assay, U937", "description": "4. Cell Death Detection ELISA Plus assay for apoptosis. The assay is based on a quantitative sandwich-enzyme-immunoassay-principle using mouse monoclonal antibodies directed against DNA and histones, respectively. This allows the specific determination of mono- and oligonucleosomes in the cytoplasmatic fraction of cell lysates. Roche kit, Cat. # 1 774 425, was used for this assay. 0.1 ml of U937 or any other types of cells (2×104 ) and 0.1 ml of tissue culture supernatant or other solutions containing apoptosis inducing agents (e.g. TRAIL) were used for this assay in 48-well plate. After 24 or 48 hrs of incubation at 3 7° C., the cells were spun at 2,000 rpm for 10 minutes. Cell pellet was then resuspended in 200 ul lysis buffer and incubated for 30 minutes at room temperature. The cell lysate was then centrifuged at 2,000 rpm for 10 minutes and diluted at 1:10 with incubation buffer. 20 ul of diluted lysate was added to coated plate (MTP from kit) and 80 ul of the immunoreagent was added to each well. MTP was then covered with adhesive cover foil and incubated under gentle shaking for 2 hours at room temperature. The solution was then removed thoroughly by tapping and subsequently rinsed 3 times with 250 ul incubation buffer. 100 ul ABTS solution was added and incubated on a plate shaker at 250 rpm for 15 minutes. Readings at 405 nm and 490 nm (background) were done on ELISA reader. […]"}, "U937 human tumor cells [2]": {"system": "U937 human tumor cells", "assay": "Annexin V FACS apoptosis assay, U937", "excerpt": "5. Annexin V apoptosis assay. ApoScreen Annexin V Apoptosis Kit (Cat. No. 10010-02, Southern Biotechnology Assoc. Inc.) was used for this assay. Annexin V detects the change in position of phosphatidy serine (PS) in the cell membrane. In non-apoptotic cells, most phosphatidyl serine molecules are at the inner layer of the plasma membrane. After inducing apoptosis, PS redistributes to the outer layer of the membrane. PS translocation precedes other apoptotic events allowing early detection of apoptosis. 1 ml of U937 cells (2×10^4) or any other types of cells and 1 ml of supernatant or other solutions containing apoptosis inducing agents (e.g. TRAIL) were used for assay in 6-well plate. After 48 hrs of incubation, cells were washed in 2 ml of cold PBS (Phosphate-buffered saline) and resuspended in 100 ul of cold 1× binding buffer. 10 ul of Annexin V-FITC was added to each tube and the tube was gently vortexed and subsequently incubated for 15 minutes in the dark at 4° C. 200 ul of cold 1× binding buffer was added to each tube and 10 ul-of PI was also added to each tube. The staining was then analyzed by flow cytometry.\nU937 human tumor cells were grown in the presence or absence of TRAIL proteins produced from conditioned media of transfected 293 cells. The apoptosis of U937 cells induced by conditioned media was measured in this assay. […]"}, "canine cell lines": {"system": "canine cell lines", "assay": "Cell Death ELISA apoptosis assay, canine cell lines", "details": "100 ng/ml (FIG. 20B and data not shown)", "description": "4. Cell Death Detection ELISA Plus assay for apoptosis. The assay is based on a quantitative sandwich-enzyme-immunoassay-principle using mouse monoclonal antibodies directed against DNA and histones, respectively. This allows the specific determination of mono- and oligonucleosomes in the cytoplasmatic fraction of cell lysates. Roche kit, Cat. # 1 774 425, was used for this assay. 0.1 ml of U937 or any other types of cells (2×104 ) and 0.1 ml of tissue culture supernatant or other solutions containing apoptosis inducing agents (e.g. TRAIL) were used for this assay in 48-well plate. After 24 or 48 hrs of incubation at 3 7° C., the cells were spun at 2,000 rpm for 10 minutes. Cell pellet was then resuspended in 200 ul lysis buffer and incubated for 30 minutes at room temperature. The cell lysate was then centrifuged at 2,000 rpm for 10 minutes and diluted at 1:10 with incubation buffer. 20 ul of diluted lysate was added to coated plate (MTP from kit) and 80 ul of the immunoreagent was added to each well. MTP was then covered with adhesive cover foil and incubated under gentle shaking for 2 hours at room temperature. The solution was then removed thoroughly by tapping and subsequently rinsed 3 times with 250 ul incubation buffer. 100 ul ABTS solution was added and incubated on a plate shaker at 250 rpm for 15 minutes. Readings at 405 nm and 490 nm (background) were done on ELISA reader."}}}
{"molecule": "human commercial TRAIL: human TRAIL (Upstate Biotechnology, 100 ng/ml), positive control (protein, UniProt P50591 1-281, looked up) Tumor necrosis factor ligand …: MAMMEVQGGPSLGQTCVLIVIFTVLLQSLCVAVTYVYFTNELKQMQDKYSKSGIACFLKEDDSYWDPNDEESMNSPCWQVKWQLRQLVRKMILRTSEETISTVQEKQQNISPLVRERGPQRVAAHITGTRGRSNTLSSPNSKNEKALGRKINSWESSRSGHSFLSNLHLRNGELVIHEKGFYYIYSQTYFRFQEEIKENTKNDKQMVQYIYKYTSYPDPILLMKSARNSCWSKDAEYGLYSIYQGGIFELKENDRIFVSVTNEHLIDMDHEASFFGAFLVG", "values": [{"measurement": "apoptosis specific cell death of U937 cells, times that of control", "setting": "U937 human tumor cells [1]; conditioned media of transfected 293 cells, two independent experiments (FIG. 9B)", "result": "7 times that of control"}, {"measurement": "induction of apoptosis of U937 cells, in words", "setting": "U937 human tumor cells [1]; mammalian expressed TRAIL supernatants, commercial human TRAIL and Fas ligand 100 ng/ml (FIGS. 19B, 20B, 21B)", "result": "induced potent apoptosis"}, {"measurement": "apoptosis of U937 cells", "setting": "U937 human tumor cells [2]; conditioned media of transfected 293 cells, background 15-20% (FIG. 9C)", "result": 45, "unit": "%"}, {"measurement": "apoptosis of U937 cells", "setting": "U937 human tumor cells [2]; experiment with bacteria expressed semi-purified TRAIL-Thio proteins (FIG. 12)", "result": "above 85%"}, {"measurement": "effect on canine cell lines, in words", "setting": "canine cell lines", "result": "very minimal"}]}
